Experimental findings from paper PMC10511321 are described below.

For test [1], the target named is SARS-CoV-2 Omicron BA.2.75.2 RBD, construct used for SPR (SARS-CoV-2) (UniProt P0DTC2). Put plainly: SPR. On the technique in general: Surface plasmon resonance follows binding to a sensor surface in real time, without labels.
For test [2], the target named is SARS-CoV-2 Omicron BQ.1.1 S glycoprotein, cell-surface expressed (Δ19) (SARS-CoV-2) (UniProt P0DTC2).
Test [3] concerns the target SARS-CoV-2 Omicron BN.1 S glycoprotein, cell-surface expressed (Δ19) (SARS-CoV-2) (UniProt P0DTC2).
For test [4], the target named is SARS-CoV-2 Omicron XBB.1 S glycoprotein, cell-surface expressed (Δ19) (SARS-CoV-2) (UniProt P0DTC2).

One may read the Kd as the free concentration of one partner at which half of the binding sites on the other are occupied at equilibrium, for simple one-to-one binding. For orientation: koff means a measure of how fast the partners let go of each other. Higher therefore signals fast dissociation. By kon is commonly meant a measure of how fast the partners come together.

Consider “S309 Fab (fragment antigen-binding region of the S309 antibody, the parent antibody for sotrovimab), used for SPR”, for which, in test [1], the dissociation constant Kd worked out at 860 pM, the off-rate constant (koff) turned out to be 2.8e-05 s⁻¹ and the kon turned out to be 25500 M⁻¹ s⁻¹.

In the case of “sotrovimab immunoglobulin G (IgG) (antibody)”, the neutralization of S VSV pseudovirus, fold reduction in potency relative to Wu in test [2] stood at 94 fold; in test [3] it was 778 fold; in test [4], 6.5 fold.
